Experimental data: patent US20190184015A1, “IRRADIATION TREATMENT OF NEUROLOGICAL SENSATIONS BY PHOTOABLATION” (European Molecular Biology Laboratory, priority 2016, published 2019)
Entries after “also recorded” stand apart in the source; their conditions may differ.

Tests used:
[1] = molecular target: native TrkB receptors in DRG neurons (mouse) (mouse) (UniProt P15209); test: Qdot 655 conjugated ligand on dissociated DRG of TrkBCreERT2::Rosa26RFP mice, counting of labelled cells
[2] = test system: HEK293T cells expressing TrkB/p75; test: BDNF^SNAP-IR700 photoablation of HEK293T cells (propidium iodide); format: cell-based
Description: In initial experiments BDNF^SNAP-IR700 was applied to HEK293T cells expressing TrkB/p75 and cell death assayed following near infrared illumination.

TrkB+ neurons [3] = test: Spared Nerve Injury (SNI) model, photoablation in the paw; format: in vivo, mouse
Description: Next neuropathic pain was induced in mice using the Spared Nerve Injury (SNI) model. Control mice developed a profound mechanical hypersensitivity in the sural nerve territory of the paw to both von Frey filaments and dynamic brush stimuli (FIGS. 6D and E). […] The inventors performed further experiments in TrkBCreERT2::Rosa26ChR2 mice to optogenetically activate these neurons. Three days after injury it was observed that selective stimulation of TrkB neurons with light evoked behavior indicative of pain. This was evident as a prolonged paw withdrawal from the stimulation, lifting of the paw and licking of the illuminated area (FIG. 6F) that continued for several minutes after light application. Such behavior persisted throughout the 2 weeks observation period and was never observed in control mice (FIG. 6F).
(§1) The inventors next sought to assess the therapeutic potential of this approach by investigating the effects of BDNF^SNAP-IR700 mediated photoablation in wildtype mice with neuropathic pain. Upon establishment of robust mechanical allodynia three days after SNI, a range of concentrations of BDNF^SNAP-IR700 was injected into the ipsilateral paw of injured mice and the skin illuminated with different light intensities. […] It was examined whether such pronounced effects were also evident in other types of neuropathic pain. […] To determine the selectivity of this approach, the inventors further assessed the effects of BDNF^SNAP-IR700 mediated photoablation on behavioral responses under basal conditions. No deficits in sensitivity to cold, heat, or pinprick upon treatment were observed (FIG. 8f to h). Responses to cotton swab were also unaffected by photoablation (FIG. 3i), perhaps because the skin area that is stimulated in this test extends beyond the zone of illumination.

TrkB+ neurons [4] = test: Streptozotocin model of painful diabetic neuropathy; format: in vivo, mouse
Procedure: as §1

TrkB+ neurons [5] = test: Paclitaxel model of chemotherapy induced neuropathic pain; format: in vivo, mouse
Procedure: as §1

[6] = test system: baseline sensory behavior; test: Behavioral responses under basal conditions after photoablation in the paw; format: in vivo, mouse
Procedure: as §1

TrkB positive afferents = test: Innervation of skin and DRG neuron counts after photoablation; format: in vivo, mouse
Description: Prior to photoablation, TrkB positive lanceolate endings were detected around hair follicles (FIG. 9a) and innervating Meissner corpuscles in the plantar surface of the paw. […] It was further investigated whether loss of TrkB^CreERT2 neurons was also evident at the level of the cell soma by analyzing the number of TrkB^CreERT2 positive neurons in the DRG.

TrkB sensory fibers = test: Behavioral sensitivity after photoablation in the sciatic nerve; format: in vivo, mouse
Description: It was further investigated whether optogenetically evoked pain behavior in SNI mice is dependent upon CD34 + cells or TrkB+ fibers in the skin.

skin cell types = settings: mouse, in vivo
[7] = SNI mice, injection into ipsilateral paw and illumination
[8] = injection into sciatic nerve, nerve illuminated

Chain of native TrkB receptors in DRG neurons (mouse) (mouse) (P15209 32-821): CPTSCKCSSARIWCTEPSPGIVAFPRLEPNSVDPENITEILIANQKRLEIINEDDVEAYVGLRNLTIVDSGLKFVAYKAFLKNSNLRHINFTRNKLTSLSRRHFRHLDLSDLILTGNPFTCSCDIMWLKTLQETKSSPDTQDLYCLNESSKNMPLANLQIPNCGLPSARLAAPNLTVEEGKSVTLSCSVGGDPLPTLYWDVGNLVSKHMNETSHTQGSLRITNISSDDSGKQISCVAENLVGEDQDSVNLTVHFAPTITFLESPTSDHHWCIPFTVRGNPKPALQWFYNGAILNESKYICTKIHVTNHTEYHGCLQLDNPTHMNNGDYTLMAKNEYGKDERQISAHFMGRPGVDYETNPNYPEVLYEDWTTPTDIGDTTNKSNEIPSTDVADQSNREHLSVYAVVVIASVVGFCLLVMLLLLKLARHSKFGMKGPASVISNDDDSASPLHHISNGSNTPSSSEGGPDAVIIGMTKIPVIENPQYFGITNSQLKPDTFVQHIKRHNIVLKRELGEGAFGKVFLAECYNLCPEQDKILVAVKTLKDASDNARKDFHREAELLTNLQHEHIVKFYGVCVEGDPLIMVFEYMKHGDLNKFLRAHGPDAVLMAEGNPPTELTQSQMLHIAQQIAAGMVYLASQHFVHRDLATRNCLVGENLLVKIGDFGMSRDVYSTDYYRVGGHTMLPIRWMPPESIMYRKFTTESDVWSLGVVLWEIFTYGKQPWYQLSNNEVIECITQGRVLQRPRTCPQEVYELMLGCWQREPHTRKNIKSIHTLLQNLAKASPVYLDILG

BDNF^SNAP (ligand) gave an overlap between BDNF^SNAP and TrkBCreERT2 positive cells [1] of over 95%.

B1: BDNF^SNAP-IR700: BDNF^SNAP conjugated in vitro to benzylguanine modified IRDye®700 DX phthalocyanine (conjugate, UniProt P23560 19-247, looked up)
Neurotrophic factor BDNF …: APMKEANIRGQGGLAYPGVRTHGTLESVNGPKAGSRGLTSLADTFEHVIEELLDEDQKVRPNEENNKDADLYTSRVMLSSQVPLEPPLLFLLEEYKNYLDAANMSMRVRRHSDPARRGELSVCDSISEWVTAADKKTAVDMSGGTVTVLEKVPVSKGQLKQYFYETKCNPMGYTKEGCRGIDKRHWNSQCRTTQSYVRALTMDSKKRIGWRFIRIDTSCVCTLTIKRGR
modifications: C-terminal SNAP tag; IRDye700DX conjugate
notes: BDNF^SNAP conjugated in vitro to benzylguanine modified IRDye®700 DX phthalocyanine
With B1 the “cell death after near infrared illumination” value ([2]; HEK293T cells expressing TrkB/p75, 24 hours after brief illumination) was “substantial cell death”, the “cell death after near infrared illumination” value ([2]; mock transfected HEK293T cells) was “not evident” and the “cotton swab evoked allodynia” value (TrkB+ neurons [3]; [7]) was “concentration and illumination dependent rescue; also recorded: reversed by photoablation”. The “dynamic brush evoked allodynia” value (TrkB+ neurons [3]; [7]) was “concentration and illumination dependent rescue; also recorded: dose dependent reversal of mechanical hypersensitivity”, the “von Frey withdrawal thresholds” value (TrkB+ neurons [3]; [7]) was “concentration and illumination dependent rescue; also recorded: dose dependent reversal of mechanical hypersensitivity” and the persistence of rescue (TrkB+ neurons [3]; after a single treatment regime) was “more than 3 weeks”. For the same molecule, the “return to injury levels” value (TrkB+ neurons [4]) was at most 20 days, the “time of peak reversal” value (TrkB+ neurons [4]) was “around 10 days post treatment” and the mechanical hypersensitivity (TrkB+ neurons [4]; 5 μM at 200 J/cm^2) was “marked reversal of mechanical hypersensitivity; also recorded: reverses mechanical allodynia”. The “return to injury levels” value (TrkB+ neurons [5]) was at most 20 days, the “time of peak reversal” value (TrkB+ neurons [5]) was “around 10 days post treatment” and the mechanical hypersensitivity (TrkB+ neurons [5]; 5 μM at 200 J/cm^2) was “marked reversal of mechanical hypersensitivity; also recorded: reverses mechanical allodynia”. For the same molecule, the “responses to cotton swab” value [6] was “unaffected; also recorded: does not affect baseline sensory behavior responses”, the “sensitivity to cold (acetone drop test)” value [6] was “No deficits; also recorded: does not affect baseline sensory behavior responses” and the “sensitivity to heat (hot plate test)” value [6] was “No deficits; also recorded: does not affect baseline sensory behavior responses”. The sensitivity to pinprick [6] was “No deficits; also recorded: does not affect baseline sensory behavior responses”, the “innervation of hairy and glabrous skin” value (TrkB positive afferents; 7 days after photoablation (13 days post-SNI)) was “selective loss of TrkB fibers but persistent innervation by PGP9.5 fibers; also recorded: Substantial loss of TrkB^CreERT2 positive afferents (red), but persistence of other fibers” and the “proportion of TrkB neurons in the DRG” value (TrkB positive afferents; 10 days after photoablation) was “No differences in the proportion of TrkB neurons”. For the same molecule, the “innervation of skin by TrkB positive fibers” value (TrkB positive afferents; 24 days post-photoablation) was “TrkB positive fibers were again seen innervating their appropriate end organs; also recorded: Reinnervation of skin by TrkB^CreERT2 afferents”, the “light driven nocifensive behavior” value (TrkB sensory fibers; TrkB^CreERT2::Rosa26^ChR2 mice with SNI, sciatic nerve photoablation) was “significant reduction in light driven nocifensive behavior; also recorded: reduced by nerve photoablation” and the “behavioral response to cooling (acetone drop test)” value (TrkB sensory fibers; injection into sciatic nerve at mid-thigh level, nerve illuminated) was “normal; also recorded: not altered by nerve photoablation”. For the same molecule, the “behavioral response to heating (radiant heat test)” value (TrkB sensory fibers; [8]) was “normal; also recorded: not altered by nerve photoablation”, the “behavioral response to pinprick” value (TrkB sensory fibers; [8]) was “normal; also recorded: not altered by nerve photoablation” and the “sensitivity to cotton swab” value (TrkB sensory fibers; [8]) was “reduced by nerve photoablation”. For the same molecule, the “number of CD34 positive cells in the skin” value (skin cell types) was “significantly reduced the number of CD34 positive cells” and the “numbers of Merkel cells, keratinocytes, dendritic and dermal antigen presenting cells in the skin” value (skin cell types) was “did not alter their numbers”.
